No end group written: not given here. *: point of attachment. Benzoyl(4-SO2NH2) = NS(=O)(=O)c1ccc(C(=O)*)cc1; M65 = not defined here; M67 = not defined here; M75 = not defined here; M76 = not defined here; M88 = not defined here
B1: (SAB)AAAAE (peptide)
peptide: {Benzoyl(4-SO2NH2)}-AAAAE-NH2
SMILES: C[C@H](NC(=O)c1ccc(S(N)(=O)=O)cc1)C(=O)N[C@@H](C)C(=O)N[C@@H](C)C(=O)N[C@@H](C)C(=O)N[C@@H](CCC(=O)O)C(N)=O
B2: (SAB)AFAAE (peptide)
peptide: {Benzoyl(4-SO2NH2)}-AFAAE-NH2
SMILES: C[C@H](NC(=O)c1ccc(S(N)(=O)=O)cc1)C(=O)N[C@@H](Cc1ccccc1)C(=O)N[C@@H](C)C(=O)N[C@@H](C)C(=O)N[C@@H](CCC(=O)O)C(N)=O
B3: (SAB)SAAAE (peptide)
peptide: {Benzoyl(4-SO2NH2)}-SAAAE-NH2
SMILES: C[C@H](NC(=O)[C@H](C)NC(=O)[C@H](CO)NC(=O)c1ccc(S(N)(=O)=O)cc1)C(=O)N[C@@H](C)C(=O)N[C@@H](CCC(=O)O)C(N)=O
B4: (SAB)LAAAE (peptide)
peptide: {Benzoyl(4-SO2NH2)}-LAAAE-NH2
SMILES: CC(C)C[C@H](NC(=O)c1ccc(S(N)(=O)=O)cc1)C(=O)N[C@@H](C)C(=O)N[C@@H](C)C(=O)N[C@@H](C)C(=O)N[C@@H](CCC(=O)O)C(N)=O
B5: (SAB)FAAAE (peptide)
peptide: {Benzoyl(4-SO2NH2)}-FAAAE-NH2
SMILES: C[C@H](NC(=O)[C@H](C)NC(=O)[C@H](Cc1ccccc1)NC(=O)c1ccc(S(N)(=O)=O)cc1)C(=O)N[C@@H](C)C(=O)N[C@@H](CCC(=O)O)C(N)=O
B6: (SAB)HAAAE (peptide)
peptide: {Benzoyl(4-SO2NH2)}-HAAAE-NH2
SMILES: C[C@H](NC(=O)[C@H](C)NC(=O)[C@H](Cc1c[nH]cn1)NC(=O)c1ccc(S(N)(=O)=O)cc1)C(=O)N[C@@H](C)C(=O)N[C@@H](CCC(=O)O)C(N)=O
B7: (SAB)EAAAE (peptide)
peptide: {Benzoyl(4-SO2NH2)}-EAAAE-NH2
SMILES: C[C@H](NC(=O)[C@H](C)NC(=O)[C@H](CCC(=O)O)NC(=O)c1ccc(S(N)(=O)=O)cc1)C(=O)N[C@@H](C)C(=O)N[C@@H](CCC(=O)O)C(N)=O

Key:
Experiment in all cases: cell-based or functional assay
[1] = target: T1, wild-type human carbonic anhydrase II (hCAII) protein (human, UniProt P00918 4-259)
[2] = target: T1, wild-type human carbonic anhydrase II …; remark: listed apart in the source
[3] = target: T1, wild-type human carbonic anhydrase II …; remark: listed apart in the source

Binder	NTM-AAEIR IC50 (µM), colorimetric IC50 assay [1]	IC50 (µM), hCAII functional assay [2]	P2 dependence: fold difference of IC50 (SABA-AF against SABA-AA) [3]
M88-AAEIR (not fully specified; printed as M88-AAEIR; reading uncertain) [M88-AAEIR]	0.095 µM	–	–
M67-AAEIR (not fully specified; printed as M67-AAEIR; reading uncertain) [M67-AAEIR]	0.073 µM	–	–
M75-AAEIR (not fully specified; printed as M75-AAEIR; reading uncertain) [M75-AAEIR]	0.067 µM	–	–
B1	–	0.0484 µM	–
B2	–	0.183 µM	~4 fold
B3	–	0.153 µM	–
B4	–	0.0284 µM	–
B5	–	0.045 µM	–
B6	–	0.148 µM	–
B7	–	0.0993 µM	–
M76-AAEIR (not fully specified; printed as M76-AAEIR; reading uncertain) [M76-AAEIR]	0.077 µM	–	–
M65-AAEIR (not fully specified; printed as M65-AAEIR; reading uncertain) [M65-AAEIR]	0.515 µM	–	–

From US20220283175A1 (ENCODIA, published 2022)
